Measured values: patent publication US7387779B2, “Anti-angiogenic proteins and fragments and methods of use thereof” (Beth Israel Deaconess Medical Center, priority 1998, dated 2008)

Assays:
C-PAE cells [1] = assay: Endothelial cell proliferation, methylene blue staining; format: cell-based, bovine; details: for inhibition of endothelial cell proliferation by synthetic peptides: 10 μg/ml; for EC50: equimolar comparison, read-out: ED50, anti-proliferative effect; for inhibition of proliferation of C-PAE cells: 15 μg/ml; for Relative Cell No. (%) C-PAE: 15 μg/ml recombinant protein; for reduction of the number of cells: 10% FBS, 5 ng/ml bFGF, 3 ng/ml VEGF, 48 hours, 5 μg/ml and higher; for inhibition of endothelial cell proliferation, comparison with anti-αvβ3 antibody: increasing equimolar amounts
Method: A methylene blue staining test was also done. 3,100 cells were added to each well and treated as above, and cells were then counted using the method of Oliver et al. (Oliver, M. H. et al., 1989, J. Cell. Science 92:513-18). All wells were washed one time with […] of 1×PBS and the cells were fixed by adding […] of 10% formalin in neutral-buffered saline (Sigma Chemical Co., St. Louis, Mo., USA) for 30 minutes at room temperature. After formalin removal cells were stained with a solution of 1% methylene blue (Sigma Chemical Co.) in 0.01 M borate buffer (pH 8.5) for 30 minutes at room temperature. After removal of staining solution, the wells were washed 5 times with […] of 0.01 M borate buffer (pH 8.5). Methylene blue was extracted from the cells with […] of 0.1N HCi/ethanol (1:1 mixture) for 1 hour at room temperature. The amount of methylene blue staining was measured on a microplate reader (BioRad, Hercules, Calif., USA) using light absorbance at 655 nm wavelength.
In the methylene-blue staining method, 7000 cells were plated into each well of a 96-well plate, and treated as described above. Cells were then counted using the method of Oliver et al. (1989, J. Cell. Sci. 92:513-8). After 48 hours of treatment, all wells were washed with 100 μl of PBS, and the cells fixed with 10% formalin in neutral-buffered saline (Sigma Chemical Co., St. Louis, Mo., USA). The cells were then stained with 1% methylene blue (Sigma) in 0.01M borate buffer, pH 8.5. Wells were washed with 0.01M borate buffer, and the methylene blue extracted from the cells with 0.1N HCl/ethanol, and the absorbance measured in a microplate reader (Bio-Rad, Hercules, Calif., USA) at 655 nm. Polymyxin B (Sigma) at a final concentration of 5 μg/ml was used to inactivate endotoxin (Liu, S. et al., 1997, Clin. Biochem. 30:455-63).
Proliferation of endothelial cells (C-PAE cells) and WM-164 melanoma cells was assayed by methylene blue staining, as described above in Examples 25 and 34. The results are shown in FIGS. 33A and 33B, which are a pair of graphs showing the effect of increasing concentration (x-axis) of Tumstatin, Tum-1, Tum-2, Tum-3 and Tum-4 on the relative number (y-axis) of C-PAE cells (FIG. 33A) and WM-164 cells (FIG. 33B). […] Tum-4, however, did have anti-proliferative activity in this cell line. […] Only Tum-4 inhibited WM-164 melanoma cells.
For the proliferation assay, Canstatin, Can-1 and Can-2 soluble proteins (0.1-20.0 μg/ml) were added to the growth medium of proliferating C-PAE cells, which were stimulated with 10% FBS in DMEM, in addition to 5 ng/ml bFGF and 3 ng/ml VEGF. The results are shown in FIG. 40, which is a graph showing the effect of increasing concentrations of Canstatin (♦), Can-1 (▪) and Can-2 (▴) (x-axis) on the relative cell number (y-axis) of C-PAE cells. Each concentration of each protein was tested in quadruplicate. Bovine serum albumin (BSA) was used as a control treatment. Polymyxin B was used to control for endotoxin interference, and no differences were found between assays run with and without polymyxin B added to the medium. Cells were allowed to proliferate for 48 hours, and were then fixed, stained and the density read with a Bio-Rad plate reader (Bio-Rad, Hercules, Calif., USA). Canstatin and Can-1 both caused dose-dependent decreases in the percent cell number, and both reduced the number of cells by 80% at concentrations of 5 μg/ml and higher.
An endothelial cell proliferation assay was used to compare the activity of Tumstatin and some of the deletion mutants. Recombinant Tumstatin (28 kDa), Tumstatin-44-131 (12 kDa) and T3 peptide were used in a methylene blue proliferation assay in equimolar concentrations.

C-PAE cells [2] = assay: Cell attachment assay; format: cell-based, bovine
Method: The attachment of HUVECs to Tumstatin-coated plates in the presence of integrin subunits α1 through α6, β1, and αvβ3 integrin blocking antibody was examined. This assay was performed according to the method of Senger et al. (Senger, D. R. et al, 1997, Proc. Natl. Acad. Sci. USA 94:13612-7), with minor modification. 96-well plates were coated with either human Tumstatin, mouse laminin-1, or human Type IV collagen (Collaborative Biomedical Prods., Bedford, Mass., USA) at a concentration of 10 μg/ml overnight at 37° C. Vitronectin (Collaborative Biomed. Prods.) at a concentration of 0.5 μg/ml was then used to coat the plates. The remaining protein binding sites were blocked with 100 mg/ml of BSA (Sigma Chemical Co., St. Louis, Mo., USA) in PBS for 2 hours. HUVEC cells were grown to subconfluence (70-80%) in EGM-2 medium, gently trypsinized and resuspended in serum-free medium (1.5×10^5 cells/ml). The cells were mixed with 10 μg/ml of either mouse IgG, (control) (Life Technologies/Gibco BRL, Gaithersberg, Md., USA) or antibody (mouse monoclonal antibody to the human β1 integrin (clone P4C10) (Life Technologies/Gibco BRL); monoclonal antibody to human integrins α1 through α.6 (CHEMICON Int'l, Temecula, Calif., USA); αvβ3 integrin (clone LM609) (CHEMICON Int'l) and incubated for 15 minutes at room temperature, with gentle agitation. One hundred microliters of the cell suspension was then added to each well and incubated for 45 minutes at 37° C. Unattached cells were removed by washing, and the number of attached cells were counted after staining with methylene blue. C-PAE cells were used in separate experiments, following the above procedure.
To determine the attachment of C-PAE cells to plates coated with the Tumstatin deletion mutants, the cell attachment assay was performed as described above (see, e.g., Example 28). Rabbit antibody raised against Tum-4 was prepared as previously described (Kalluri et al., 1997, J. Clin. Invest. 99:2470-8). Goat anti-rabbit IgG antibody conjugated with horseradish peroxidase was purchased from Sigma Chemical Company (St. Louis, Mo., USA). […] Plates coated with Tum-1 (FIG. 36A) were also treated with anti-Tum-4 antibody (1:200 dilution) to block the previously reported (Shahan et al, 1999, Cancer Res. 59:4584-90) αvβ3 binding site, as well as the αvβ5 binding site.
Cell Attachment Activity: Cell attachment using endothelial cells was performed as described above. HUVEC or C-PAE cells were incubated with monoclonal anti-human integrin antibodies, control mouse IgG (10 μg/ml), or synthetic peptide, plated onto pre-coated 96-well plates, and the number of cells attaching to the plates was determined using measurement of methylene blue staining at OD655. […] CNGRC peptide was used as a control.
The cell attachment assay was performed as described above.
Tumstatin produced in 293 human embryonic kidney cells was used to coat tissue culture plates. […] PBS and BSA served as positive and negative controls, respectively.

Question: GLKGKRGDSGSPATWTTRGF [T1] was tested. Which “inhibition of endothelial cell proliferation by synthetic peptides” value (C-PAE cells [1]; 20% FCS) did it give?
Answer: Its value is “did not inhibit endothelial cell proliferation”.

Question: For LQRFTTMPFLFCNVNDVCNF [T3], which “attachment to T3-coated plates with anti-αv or anti-β1 integrin antibody” value (C-PAE cells [2]) is on record?
Answer: The value was “did not inhibit”.

Question: And the “attachment to T3 peptide-coated plates with anti-β3 integrin antibody” value (C-PAE cells [2])?
Answer: The value was “inhibited by a preincubation with anti-β3 integrin antibody”.

Question: What about the “inhibition of cell attachment to Tum-4-coated plates by peptide” value (C-PAE cells [2]) of the same molecule?
Answer: Its value is “failed to inhibit”.

Question: And the “inhibition of cell attachment onto Tum-5-coated plates by peptide” value (C-PAE cells [2]; 2.5 μg/ml peptide)?
Answer: The value was “significantly inhibited”.

Question: And the “inhibition of cell attachment to Tumstatin-coated plates by peptide” value (C-PAE cells [2]; 10 μg/ml peptide, 293-produced Tumstatin coating)?
Answer: The value was 46.4%.

Question: What about the “binding to vitronectin-coated plates (2.5 μg/ml) in the presence of peptide” value (C-PAE cells [2]; 0.1, 1.0, 10.0 μg/ml peptide) of the same molecule?
Answer: Its value is “not inhibited”.

Question: And the “inhibition of endothelial cell proliferation by synthetic peptides” value (C-PAE cells [1]; 20% FCS)?
Answer: The value was “significantly (p<0.05) inhibit”.

Question: And the EC50 (C-PAE cells [1])?
Answer: Its EC50 is 2500 nM.

Question: And the “fold less active than Tumstatin and Tumstatin-44-131” value (C-PAE cells [1]; equimolar concentrations / molar basis)?
Answer: Its value is 2.5 fold.

B1: Tum-1: residues 54 to 244 of Tumstatin, lacking the N-terminal 53 amino acids (SEQ ID NO:22) (protein)
chain: QRAHGQDLGTLGSCLQRFTTMPFLFCNVNDVCNFASRNDYSYWLSTPALMPMNMAPITGRALEPYISRCTVCEGPAIAIAVHSQTTDIPPCPHGWISLWKGFSFIMFTSAGSEGTGQALASPGSCLEEFRASPFLECHGRGTCNYYSNSYSFWLASLNPERMFRKPIPSTVKAGELEKIISRCQVCMKKRH
modifications: Tum-1 (Tumstatin N-53) (amino acids 54-244 of SEQ ID NO10)
Question: How did the “inhibition of attachment of C-PAE cells to coated plates by αvβ3 antibody” value (C-PAE cells [2]; label = plate coating) turn out when B1 was run?
Answer: Its value is 55.9%.

Question: And the “inhibition of binding of C-PAE cells to coated plates by αvβ5 antibody” value (C-PAE cells [2]; label = plate coating)?
Answer: Its value is “not inhibited”.

Question: And the “inhibition of proliferation of C-PAE cells” value (C-PAE cells [1])?
Answer: Its value is 65.6%.

Question: What about the “Relative Cell No. (%) C-PAE” value (C-PAE cells [1]; 20% FCS) of the same molecule?
Answer: Its value is 20.5 ± 3.4 %.

B2: Can-1: N-terminal 114 amino acids of full-length Canstatin (protein, listed as Homo sapiens)
chain: VSIGYLLVKHSQTDQEPMCPVGMNKLWSGYSLLYFEGQEKAHNQDLGLAGSCLARFSTMPFLYCNPGDVCYYASRNDKSYWLSTTAPLPMMPVAEDEIKPYISRCSVCEAPAIA
Question: For B2, which “reduction of the number of cells” value (C-PAE cells [1]) is on record?
Answer: Its value is 80%.

B3: Canstatin: NC1 domain of the α2 chain of Type IV collagen (SEQ ID NO:6) (protein, listed as Homo sapiens)
chain: VSIGYLLVKHSQTDQEPMCPVGMNKLWSGYSLLYFEGQEKAHNQDLGLAGSCLARFSTMPFLYCNPGDVCYYASRNDKSYWLSTTAPLPMMPVAEDEIKPYISRCSVCEAPAIAIAVHSQDVSIPHCPAGWRSLWIGYSFLMHTAAGDEGGGQSLVSPGSCLEDFRATPFIECNGGRGTCHYYANKYSFWLTTIPEQSFQGSPSADTLKAGLIRTHISRCQVCMKNL
Question: Which results are given for B3?
Answer: reduction of the number of cells (C-PAE cells [1]): 80%; treatment level at which dye uptake dropped off to the level seen in unstimulated cells (C-PAE cells [1]; 10% FCS): 0.625 to 1.25 µg/mL

B4: Tumstatin: NC1 domain of the α3 chain of type IV collagen, residues 1-244 (SEQ ID NO:10) (protein, listed as Homo sapiens)
chain: GLKGKRGDSGSPATWTTRGFVFTRHSQTTAIPSCPEGTVPLYSGFSFLFVQGNQRAHGQDLGTLGSCLQRFTTMPFLFCNVNDVCNFASRNDYSYWLSTPALMPMNMAPITGRALEPYISRCTVCEGPAIAIAVHSQTTDIPPCPHGWISLWKGFSFIMFTSAGSEGTGQALASPGSCLEEFRASPFLECHGRGTCNYYSNSYSFWLASLNPERMFRKPIPSTVKAGELEKIISRCQVCMKKRH
Question: B4 was tested. Which “inhibition of proliferation of C-PAE cells” value (C-PAE cells [1]) did it give?
Answer: The value was 78.5%.

Question: And the “Relative Cell No. (%) C-PAE” value (C-PAE cells [1]; 20% FCS)?
Answer: Its value is 100.0 ± 3.2%.

Question: And the EC50 (C-PAE cells [1])?
Answer: Its EC50 is 1000 nM.

Question: What about the “inhibition of endothelial cell proliferation, comparison with anti-αvβ3 antibody” value (C-PAE cells [1]) of the same molecule?
Answer: The value was “dose-dependent inhibition”.

B5: Tumstatin-44-131: residues 44 to 131 of full-length Tumstatin (SEQ ID NO:33) (protein)
chain: FSFLFVQGNQRAHGQDLGTLGSCLQRFTTMPFLFCNVNDVCNFASRNDYSYWLSTPALMPMNMAPITGRALEPYISRCTVCEGPAIAI
modifications: Tumstatin-45-132 (amino acids 45-132 of SEQ ID NO10)
Question: B5 was tested. Which “attachment to coated plates in the presence of RGD peptide (CDCRGDCFC)” value (C-PAE cells [2]; label = plate coating) did it give?
Answer: The value was “not inhibited”.

Question: What about the “ED50, inhibition of proliferation” value (C-PAE cells [1]; Pichia-expressed, 20% FCS) of the same molecule?
Answer: Its value is 5 µg/mL.

Question: What about the EC50 (C-PAE cells [1]) of the same molecule?
Answer: Its EC50 is 1000 nM.

B6: endostatin: tumor associated angiogenesis inhibitor used as comparator (protein, UniProt P39060 1572-1754, looked up)
Endostatin: HSHRDFQPVLHLVALNSPLSGGMRGIRGADFQCFQQARAVGLAGTFRAFLSSRLQDLYSIVRRADRAAVPIVNLKDELLFPSWEALFSGSEGPLKPGARIFSFDGKDVLRHPTWPQKSVWHGSDPNGRRLTESYCETWRTEAPSATGQASSLLGGRLLGQSAASCHHAYIVLCIENSFMTASK
modifications: Endostatin
Question: With B6 as the molecule, how does the “inhibition of endothelial cell proliferation, comparison with anti-αvβ3 antibody” value (C-PAE cells [1]) read?
Answer: Its value is “dose-dependent inhibition”.
